According to PMC10511561, “Synergism between CMG helicase and leading strand DNA polymerase at replication fork” (Nature Communications, 2023):

Tests used:
[1] = biological target: T1, Pol2 (subunit of Polε in the replisome) (yeast, UniProt P21951 1-2222); test: cryo-EM structure; replisome assembled at room temperature from 0.7 uM CMG, forked DNA and ATPγS, then 1.5 molar excess of Polε, Ctf4, Tof1-Csm3; 100 mM KCl, 25 mM HEPES pH 7.6, 4 mM MgCl2, 4 mM ATPγS; 10-30% glycerol gradient with glutaraldehyde fixation; States I-VI by 3D classification; conditions: both partners purified
T1 construct: Pol2, yeast, catalytic subunit of Polε; Chain of m2 as it stands in the replisome structure; the catalytic NTD is flexible and not resolved; also called Pol2-CTD; Pol2-ZF2; source: yeast strain yAJ2, purified as part of Polε (calmodulin resin, TEV elution, Mono Q, Superose 6); not shown: CBP, N-terminal, cleaved

[2] = biological target: T2, Tof1-Csm3 (yeast, UniProt P53840 1-1238; Q04659 1-317); test: as above; conditions: both partners purified
T2 construct: Tof1, yeast; Csm3, yeast; Purified beforehand as one complex; also called Tof1 and Csm3; components of the fork protection complex (FPC); source: yeast strain yAE48, galactose-induced, purified (calmodulin resin, TEV elution, Mono Q, Superose 6); not shown: CBP, N-terminal, cleaved
T2 sequence (P53840 whole entry, chain 1 of 2): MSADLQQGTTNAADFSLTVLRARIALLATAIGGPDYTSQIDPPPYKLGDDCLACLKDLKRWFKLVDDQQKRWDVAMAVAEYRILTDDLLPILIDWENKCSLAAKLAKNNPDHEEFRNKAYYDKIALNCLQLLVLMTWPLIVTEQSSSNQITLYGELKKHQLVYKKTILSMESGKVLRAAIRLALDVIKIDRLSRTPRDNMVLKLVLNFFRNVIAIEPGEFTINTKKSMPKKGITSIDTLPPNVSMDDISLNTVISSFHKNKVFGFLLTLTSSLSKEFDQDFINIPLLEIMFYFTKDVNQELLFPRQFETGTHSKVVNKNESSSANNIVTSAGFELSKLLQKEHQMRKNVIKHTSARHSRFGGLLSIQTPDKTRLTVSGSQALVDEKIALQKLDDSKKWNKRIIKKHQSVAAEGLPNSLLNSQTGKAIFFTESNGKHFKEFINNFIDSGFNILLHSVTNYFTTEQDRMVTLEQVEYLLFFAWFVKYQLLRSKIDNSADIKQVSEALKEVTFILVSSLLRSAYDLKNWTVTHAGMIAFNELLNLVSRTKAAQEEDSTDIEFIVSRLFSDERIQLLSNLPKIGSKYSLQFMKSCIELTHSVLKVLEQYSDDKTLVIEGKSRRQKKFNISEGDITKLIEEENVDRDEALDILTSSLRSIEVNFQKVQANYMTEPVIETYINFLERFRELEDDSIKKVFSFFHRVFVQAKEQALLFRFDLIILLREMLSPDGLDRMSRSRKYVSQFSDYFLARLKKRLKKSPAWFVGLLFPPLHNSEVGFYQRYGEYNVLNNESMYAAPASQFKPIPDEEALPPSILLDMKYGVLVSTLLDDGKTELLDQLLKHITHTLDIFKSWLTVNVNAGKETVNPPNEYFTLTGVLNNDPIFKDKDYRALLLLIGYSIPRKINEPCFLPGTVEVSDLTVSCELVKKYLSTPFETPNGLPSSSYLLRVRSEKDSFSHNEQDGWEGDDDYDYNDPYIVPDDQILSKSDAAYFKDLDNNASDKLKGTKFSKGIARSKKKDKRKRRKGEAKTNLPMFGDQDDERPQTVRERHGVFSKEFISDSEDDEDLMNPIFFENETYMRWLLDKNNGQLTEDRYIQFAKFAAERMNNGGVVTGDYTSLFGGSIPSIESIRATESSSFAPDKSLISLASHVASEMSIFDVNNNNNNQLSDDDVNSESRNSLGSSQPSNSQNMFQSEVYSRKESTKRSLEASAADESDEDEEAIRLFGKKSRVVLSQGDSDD
T2 sequence (Q04659 whole entry, chain 2 of 2): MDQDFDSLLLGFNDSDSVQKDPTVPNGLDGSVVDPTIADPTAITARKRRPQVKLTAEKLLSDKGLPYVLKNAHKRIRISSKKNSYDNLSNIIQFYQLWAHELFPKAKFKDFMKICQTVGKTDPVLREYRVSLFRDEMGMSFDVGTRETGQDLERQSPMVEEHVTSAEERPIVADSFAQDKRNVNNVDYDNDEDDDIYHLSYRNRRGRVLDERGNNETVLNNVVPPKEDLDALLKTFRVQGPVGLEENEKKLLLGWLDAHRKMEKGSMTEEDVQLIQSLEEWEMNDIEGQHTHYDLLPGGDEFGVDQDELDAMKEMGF

T1 sequence (P21951 whole entry): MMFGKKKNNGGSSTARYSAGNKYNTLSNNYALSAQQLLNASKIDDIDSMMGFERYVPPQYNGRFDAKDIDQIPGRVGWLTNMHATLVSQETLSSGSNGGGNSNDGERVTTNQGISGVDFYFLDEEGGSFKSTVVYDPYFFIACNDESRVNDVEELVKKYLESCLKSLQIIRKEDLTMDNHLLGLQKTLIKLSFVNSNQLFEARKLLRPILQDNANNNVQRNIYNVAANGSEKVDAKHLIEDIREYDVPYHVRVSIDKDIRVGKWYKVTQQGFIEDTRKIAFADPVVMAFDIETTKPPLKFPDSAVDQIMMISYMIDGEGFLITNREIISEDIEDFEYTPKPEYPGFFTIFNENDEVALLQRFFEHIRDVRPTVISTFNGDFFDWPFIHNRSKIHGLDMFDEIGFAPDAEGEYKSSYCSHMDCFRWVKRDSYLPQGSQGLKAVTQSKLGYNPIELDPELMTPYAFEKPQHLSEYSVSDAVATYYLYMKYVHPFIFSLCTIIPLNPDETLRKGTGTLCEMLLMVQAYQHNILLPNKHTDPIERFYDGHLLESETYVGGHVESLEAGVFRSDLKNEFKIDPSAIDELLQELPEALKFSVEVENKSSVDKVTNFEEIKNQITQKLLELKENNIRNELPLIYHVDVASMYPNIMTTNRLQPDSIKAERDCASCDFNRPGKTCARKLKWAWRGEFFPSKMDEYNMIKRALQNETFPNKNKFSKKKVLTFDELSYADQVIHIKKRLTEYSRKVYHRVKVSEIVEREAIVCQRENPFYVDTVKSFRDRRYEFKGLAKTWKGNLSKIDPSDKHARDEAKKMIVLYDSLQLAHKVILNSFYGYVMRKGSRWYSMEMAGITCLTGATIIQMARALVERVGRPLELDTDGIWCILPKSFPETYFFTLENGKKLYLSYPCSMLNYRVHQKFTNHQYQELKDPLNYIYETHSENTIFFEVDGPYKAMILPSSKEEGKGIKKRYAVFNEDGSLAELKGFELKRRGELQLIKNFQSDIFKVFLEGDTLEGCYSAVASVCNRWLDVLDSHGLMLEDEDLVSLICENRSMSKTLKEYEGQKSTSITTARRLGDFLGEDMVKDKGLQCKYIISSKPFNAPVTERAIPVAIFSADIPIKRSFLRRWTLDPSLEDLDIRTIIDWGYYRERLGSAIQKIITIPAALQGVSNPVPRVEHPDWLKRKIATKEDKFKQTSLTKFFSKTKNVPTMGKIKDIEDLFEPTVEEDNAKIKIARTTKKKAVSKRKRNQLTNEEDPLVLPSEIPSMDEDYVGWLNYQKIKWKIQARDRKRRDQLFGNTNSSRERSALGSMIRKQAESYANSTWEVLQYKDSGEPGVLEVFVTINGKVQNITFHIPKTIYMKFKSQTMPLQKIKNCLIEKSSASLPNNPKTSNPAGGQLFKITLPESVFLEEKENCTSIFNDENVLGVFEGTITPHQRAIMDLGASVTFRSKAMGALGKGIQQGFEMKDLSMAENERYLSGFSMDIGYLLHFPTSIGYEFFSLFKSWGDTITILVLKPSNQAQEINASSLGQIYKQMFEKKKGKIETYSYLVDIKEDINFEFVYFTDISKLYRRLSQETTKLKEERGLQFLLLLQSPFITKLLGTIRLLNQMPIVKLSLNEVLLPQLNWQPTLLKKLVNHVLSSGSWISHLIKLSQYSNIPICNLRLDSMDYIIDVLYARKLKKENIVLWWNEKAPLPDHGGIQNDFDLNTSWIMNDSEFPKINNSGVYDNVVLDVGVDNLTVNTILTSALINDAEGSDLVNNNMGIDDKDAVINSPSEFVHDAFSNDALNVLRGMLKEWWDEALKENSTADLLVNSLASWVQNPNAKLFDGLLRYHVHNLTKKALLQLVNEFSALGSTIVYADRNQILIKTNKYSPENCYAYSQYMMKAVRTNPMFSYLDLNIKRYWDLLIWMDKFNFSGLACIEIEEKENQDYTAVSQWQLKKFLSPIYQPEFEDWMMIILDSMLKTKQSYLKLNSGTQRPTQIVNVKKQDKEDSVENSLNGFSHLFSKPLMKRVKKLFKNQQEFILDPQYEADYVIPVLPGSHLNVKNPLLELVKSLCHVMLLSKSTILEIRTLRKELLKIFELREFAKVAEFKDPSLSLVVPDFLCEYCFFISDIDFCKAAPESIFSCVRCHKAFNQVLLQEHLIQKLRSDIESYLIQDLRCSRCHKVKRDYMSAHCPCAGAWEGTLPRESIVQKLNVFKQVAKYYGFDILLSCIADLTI

Row | binding result [1] | binding result [2] | Binder
1 | binds | – | Mcm2 (subunit of CMG) (natural protein, yeast, Mcm2, yeast; Chain of m1 as it stands in the replisome structure; source: yeast strain yJCZ2, purified as part of CMG (anti-FLAG M2 resin, Mono Q, Superose 6)) MSDNRRRRREEDDSDSENELPPSSPQQHFRGGMNPVSSPIGSPDMINPEGDDNEVDDVPDIDEVEEQMNEVDLMDDNMYEDYAADHNRDRYDPDQVDDREQQELSLSERRRIDAQLNERDRLLRNVAYIDDEDEEQEGAAQLDEMGLPVQRRRRRRQYEDLENSDDDLLSDMDIDPLREELTLESLSNVKANSYSEWITQPNVSRTIARELKSFLLEYTDETGRSVYGARIRTLGEMNSESLEVNYRHLAESKAILALFLAKCPEEMLKIFDLVAMEATELHYPDYARIHSEIHVRISDFPTIYSLRELRESNLSSLVRVTGVVTRRTGVFPQLKYVKFNCLKCGSILGPFFQDSNEEIRISFCTNCKSKGPFRVNGEKTVYRNYQRVTLQEAPGTVPPGRLPRHREVILLADLVDVSKPGEEVEVTGIYKNNYDGNLNAKNGFPVFATIIEANSIKRREGNTANEGEEGLDVFSWTEEEEREFRKISRDRGIIDKIISSMAPSIYGHRDIKTAVACSLFGGVPKNVNGKHSIRGDINVLLLGDPGTAKSQILKYVEKTAHRAVFATGQGASAVGLTASVRKDPITKEWTLEGGALVLADKGVCLIDEFDKMNDQDRTSIHEAMEQQSISISKAGIVTTLQARCSIIAAANPNGGRYNSTLPLAQNVSLTEPILSRFDILCVVRDLVDEEADERLATFVVDSHVRSHPENDEDREGEELKNNGESAIEQGEDEINEQLNARQRRLQRQRKKEEEISPIPQELLMKYIHYARTKIYPKLHQMDMDKVSRVYADLRRESISTGSFPITVRHLESILRIAESFAKMRLSEFVSSYDLDRAIKVVVDSFVDAQKVSVRRQLRRSFAIYTLGH
2 | – | binds | Mcm6 (subunit of CMG) (natural protein, yeast, Mcm6, yeast; Chain of m1 as it stands in the replisome structure; source: yeast strain yJCZ2, purified as part of CMG (anti-FLAG M2 resin, Mono Q, Superose 6)) MSSPFPADTPSSNRPSNSSPPPSSIGAGFGSSSGLDSQIGSRLHFPSSSQPHVSNSQTGPFVNDSTQFSSQRLQTDGSATNDMEGNEPARSFKSRALNHVKKVDDVTGEKVREAFEQFLEDFSVQSTDTGEVEKVYRAQIEFMKIYDLNTIYIDYQHLSMRENGALAMAISEQYYRFLPFLQKGLRRVVRKYAPELLNTSDSLKRSEGDEGQADEDEQQDDDMNGSSLPRDSGSSAAPGNGTSAMATRSITTSTSPEQTERVFQISFFNLPTVHRIRDIRSEKIGSLLSISGTVTRTSEVRPELYKASFTCDMCRAIVDNVEQSFKYTEPTFCPNPSCENRAFWTLNVTRSRFLDWQKVRIQENANEIPTGSMPRTLDVILRGDSVERAKPGDRCKFTGVEIVVPDVTQLGLPGVKPSSTLDTRGISKTTEGLNSGVTGLRSLGVRDLTYKISFLACHVISIGSNIGASSPDANSNNRETELQMAANLQANNVYQDNERDQEVFLNSLSSDEINELKEMVKDEHIYDKLVRSIAPAVFGHEAVKKGILLQMLGGVHKSTVEGIKLRGDINICVVGDPSTSKSQFLKYVVGFAPRSVYTSGKASSAAGLTAAVVRDEEGGDYTIEAGALMLADNGICCIDEFDKMDISDQVAIHEAMEQQTISIAKAGIHATLNARTSILAAANPVGGRYNRKLSLRGNLNMTAPIMSRFDLFFVILDDCNEKIDTELASHIVDLHMKRDEAIEPPFSAEQLRRYIKYARTFKPILTKEARSYLVEKYKELRKDDAQGFSRSSYRITVRQLESMIRLSEAIARANCVDEITPSFIAEAYDLLRQSIIRVDVDDVEMDEEFDNIESQSHAASGNNDDNDDGTGSGVITSEPPADIEEGQSEATARPGTSEKKKTTVTYDKYVSMMNMIVRKIAEVDREGAEELTAVDIVDWYLLQKENDLGSLAEYWEERRLAFKVIKRLVKDRILMEIHGTRHNLRDLENEENENNKTVYVIHPNCEVLDQLEPQDSS
3 | binds | – | Cdc45 (subunit of CMG) (natural protein, yeast, Cdc45, yeast; Chain of m1 as it stands in the replisome structure; source: yeast strain yJCZ2, purified as part of CMG (anti-FLAG M2 resin, Mono Q, Superose 6)) MYYGISQFSEAYNKILRNSSSHSSCQLVIFVSCLNIDALCATKMLSLLFKKQLVQSQIVPIFGYSELRRHYSQLDDNINSLLLVGFGGVIDLEAFLEIDPQEYVIDTDEKSGEQSFRRDIYVLDAHRPWNLDNIFGSQIIQCFDDGTVDDTLGEQKEAYYKLLELDEESGDDELSGDENDNNGGDDEATDADEVTDEDEEDEDETISNKRGNSSIGPNDLSKRKQRKKQIHEYEGVLEEYYSQGTTVVNSISAQIYSLLSAIGETNLSNLWLNILGTTSLDIAYAQVYNRLYPLLQDEVKRLTPSSRNSVKTPDTLTLNIQPDYYLFLLRHSSLYDSFYYSNYVNAKLSLWNENGKKRLHKMFARMGIPLSTAQETWLYMDHSIKRELGIIFDKNLDRYGLQDIIRDGFVRTLGYRGSISASEFVEALTALLEVGNSTDKDSVKINNDNNDDTDGEEEEDNSAQKLTNLRKRWVSNFWLSWDALDDRKVELLNRGIQLAQDLQRAIFNTGVAILEKKLIKHLRIYRLCVLQDGPDLDLYRNPLTLLRLGNWLIECCAESEDKQLLPMVLASIDENTDTYLVAGLTPRYPRGLDTIHTKKPILNNFSMAFQQITAETDAKVRIDNFESSIIEIRREDLSPFLEKLTLSGLL
4 | – | binds | Mcm4 (subunit of CMG) (natural protein, yeast, Mcm4, yeast; Chain of m1 as it stands in the replisome structure; source: yeast strain yJCZ2, purified as part of CMG (anti-FLAG M2 resin, Mono Q, Superose 6)) MSQQSSSPTKEDNNSSSPVVPNPDSVPPQLSSPALFYSSSSSQGDIYGRNNSQNLSQGEGNIRAAIGSSPLNFPSSSQRQNSDVFQSQGRQGRIRSSASASGRSRYHSDLRSDRALPTSSSSLGRNGQNRVHMRRNDIHTSDLSSPRRIVDFDTRSGVNTLDTSSSSAPPSEASEPLRIIWGTNVSIQECTTNFRNFLMSFKYKFRKILDEREEFINNTTDEELYYIKQLNEMRELGTSNLNLDARNLLAYKQTEDLYHQLLNYPQEVISIMDQTIKDCMVSLIVDNNLDYDLDEIETKFYKVRPYNVGSCKGMRELNPNDIDKLINLKGLVLRSTPVIPDMKVAFFKCNVCDHTMAVEIDRGVIQEPARCERIDCNEPNSMSLIHNRCSFADKQVIKLQETPDFVPDGQTPHSISLCVYDELVDSCRAGDRIEVTGTFRSIPIRANSRQRVLKSLYKTYVDVVHVKKVSDKRLDVDTSTIEQELMQNKVDHNEVEEVRQITDQDLAKIREVAAREDLYSLLARSIAPSIYELEDVKKGILLQLFGGTNKTFTKGGRYRGDINILLCGDPSTSKSQILQYVHKITPRGVYTSGKGSSAVGLTAYITRDVDTKQLVLESGALVLSDGGVCCIDEFDKMSDSTRSVLHEVMEQQTISIAKAGIITTLNARSSILASANPIGSRYNPNLPVTENIDLPPPLLSRFDLVYLVLDKVDEKNDRELAKHLTNLYLEDKPEHISQDDVLPVEFLTMYISYAKEHIHPIITEAAKTELVRAYVGMRKMGDDSRSDEKRITATTRQLESMIRLAEAHAKMKLKNVVELEDVQEAVRLIRSAIKDYATDPKTGKIDMNLVQTGKSVIQRKLQEDLSREIMNVLKDQASDSMSFNELIKQINEHSQDRVESSDIQEALSRLQQEDKVIVLGEGVRRSVRLNNRV
5 | binds | – | Mcm5 (subunit of CMG) (natural protein, yeast, Mcm5, yeast; Chain of m1 as it stands in the replisome structure; also called Mcm5-CTD; Mcm5-WHD; source: yeast strain yJCZ2, purified as part of CMG (anti-FLAG M2 resin, Mono Q, Superose 6)) MSFDRPEIYSAPVLQGESPNDDDNTEIIKSFKNFILEFRLDSQFIYRDQLRNNILVKNYSLTVNMEHLIGYNEDIYKKLSDEPSDIIPLFETAITQVAKRISILSRAQSANNNDKDPENTSMDTDSLLLNSLPTFQLILNSNANQIPLRDLDSEHVSKIVRLSGIIISTSVLSSRATYLSIMCRNCRHTTSITINNFNSITGNTVSLPRSCLSTIESESSMANESNIGDESTKKNCGPDPYIIIHESSKFIDQQFLKLQEIPELVPVGEMPRNLTMTCDRYLTNKVIPGTRVTIVGIYSIYNSKNGAGSGRSGGGNGGSGVAIRTPYIKILGIQSDVETSSIWNSVTMFTEEEEEEFLQLSRNPKLYEILTNSIAPSIFGNEDIKKAIVCLLMGGSKKILPDGMRLRGDINVLLLGDPGTAKSQLLKFVEKVSPIAVYTSGKGSSAAGLTASVQRDPMTREFYLEGGAMVLADGGVVCIDEFDKMRDEDRVAIHEAMEQQTISIAKAGITTVLNSRTSVLAAANPIYGRYDDLKSPGDNIDFQTTILSRFDMIFIVKDDHNEERDISIANHVINIHTGNANAMQNQQEENGSEISIEKMKRYITYCRLKCAPRLSPQAAEKLSSNFVTIRKQLLINELESTERSSIPITIRQLEAIIRITESLAKLELSPIAQERHVDEAIRLFQASTMDAASQDPIGGLNQASGTSLSEIRRFEQELKRRLPIGWSTSYQTLRREFVDTHRFSQLALDKALYALEKHETIQLRHQGQNIYRSGV
